The values below come from patent US20220249611A1 (Stanford University, published 2022).

For experiment [1], the target named is FGFRs expressed on NIH3T3 cells. Briefly: equilibrium binding titration on NIH3T3 cells at 4 C, flow cytometry with anti-His antibody. (In general: In flow cytometry, cells or beads pass a laser one at a time.)
Experiment [2] shares this target. Briefly: cell-based or functional assay.
The target of experiment [3] is T1, human FGFR1 beta (IIIc)-Fc (R&D Systems) (human, UniProt P11362-14 22-285, limits assumed).
T1 construct: Bought reagent; also called FGFR1-Fc; Fc fusion of FGFR1; not shown: Fc domain (detected with anti-human IgG)
T1 sequence (looked up): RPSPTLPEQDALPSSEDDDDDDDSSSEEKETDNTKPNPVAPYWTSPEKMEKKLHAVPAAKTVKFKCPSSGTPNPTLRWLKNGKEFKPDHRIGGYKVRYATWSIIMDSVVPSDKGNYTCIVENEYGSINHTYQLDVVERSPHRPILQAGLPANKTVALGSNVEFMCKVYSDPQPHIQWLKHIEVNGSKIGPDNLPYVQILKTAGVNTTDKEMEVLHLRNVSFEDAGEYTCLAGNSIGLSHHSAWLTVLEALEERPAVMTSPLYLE
Briefly: flow cytometry, yeast-displayed peptide with soluble FGFR1-Fc. On the procedure: FIG. 15. Non-binding of peptide artifacts to FGFR1-Fc. Yeast cells expressing RTTTS or HTTS peptides on their cell surface were incubated with 10 nM FGFRT-Fc. Cells were stained with fluorescent antibodies for expression (α-c-myc) and binding (α-FGFR1-Fc).
50,000 induced yeast cells were incubated with various concentrations of FGFR1-Fc in phosphate-buffered saline with 1 g/L BSA (PBSA) at room temperature. Cells were incubated in sufficiently large volumes to avoid ligand depletion and long enough times (typically 3 to 24 hours) to reach equilibrium. During the last 30 minutes of incubation, yeast cells were incubated with 1:2500 dilution of chicken anti-c-Myc (Invitrogen) in PBSA. Yeast were pelleted, washed, then incubated with 1:200 dilution of secondary antibodies on ice for 10 min: anti-Human IgG-FITC (Sigma Aldrich) against FGFR1-Fc and anti-chicken-IgY-PE (Santa Cruz Biotechnology) against anti-c-myc. Yeast were washed, pelleted, and resuspended in PBSA immediately before analysis by flow cytometry using EMD Millipore Guava EasyCyte. Flow cytometry data were analyzed using FlowJo (v7.6.1). Binding curves were plotted and Kd values were obtained using GraphPad Prism 6.

HA tag and linker = not defined here

In the case of “recombinant soluble FGF1 L131R mutant with N-terminal 6x His tag (E. coli, pBAD/His B) (from UniProt P05230 16-155) (ligand)”, in experiment [1], the Kd is 10 nM. The molecule further registered an inhibition of ERK phosphorylation induced by 1 nM wild type FGF1 in NIH3T3 cells (Western blot against phosphoERK), IC50 in experiment [2] of 1 nM. Take “recombinant soluble wild-type FGF1 with N-terminal 6x His tag (E. coli, pBAD/His B) (from UniProt P05230 16-155) (ligand)”: the Kd in experiment [1] turned out to be 10 nM.

B1: yeast-displayed peptide artifact RTTTS (peptide)
chain: {Aga2p-HA tag and linker}-RTTTS-{c‑myc tag}
modifications: reading uncertain
notes: not shown: Aga2p of S. cerevisiae, yeast display fusion partner (pCT vector); HA tag and vector linker; C-terminal c-myc tag
On to B1, for which the binding result in experiment [3] is “no binding (tested: 10 nM)”.

B2: yeast-displayed peptide artifact HTTS (peptide)
chain: {Aga2p-HA tag and linker}-HTTS-{c‑myc tag}
modifications: reading uncertain
notes: as for B1
For the molecule B2, the binding result in experiment [3] was “no binding (tested: 10 nM)”.

A word on the Kd: it is the equilibrium constant for the complex coming apart. A lower Kd goes with a tighter complex.
